# Measurements: the supplement of paper PMC12042874
# ± gives the uncertainty stated by the source.
# Assay: amyloid nucleation score (Sup35N fusion, yeast selection) (log enrichment); library NNK2; higher = more nucleation; inactive = no reads after selection
# Procedure, shortened: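 DiMSum was used to calculate nucleation scores as log enrichment of output over input reads, centred on the mode score of non-aggregating sequences. Sequences with fewer than 100 input reads were not scored. Input and output came from Illumina sequencing of plasmid inserts in psi-negative yeast expressing peptides of 20 random codons fused to Sup35N, induced 24 hours with 100 μM copper sulfate and then grown 7 days at 30°C on medium lacking adenine and uracil.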
row,Substance,amyloid nucleation score
1,ILATSRVILVFCAMCACRWG,2.98 ± 0.062
2,ILCFGFITTNSIRLQSPMVV,0.753 ± 0.51
3,ILCLFTLSSSKCYGG,5.689 ± 0.037
4,ILEFKINPG,-1.05 ± 0.43
5,ILIREPLHDIGNVNLLVRSS,-0.359 ± 0.48
6,ILKIYVGQSSPLYFACLHIK,inactive
7,ILLQLSIKRSVASSWLHNGR,3.61 ± 0.046
8,ILLYNCCCEGWACKSWLGSH,inactive
9,ILSFM,-1.27 ± 1
10,ILTFRVYPIPFDFYFGGLEL,0.034 ± 1.1
11,ILVTVNTGSFLKSILHWL,2.31 ± 0.19
12,ILWWNKAMGCFNELVLGRRV,-0.016 ± 0.79
13,ILYKYETLMLFLSSEYNVIC,3.9 ± 0.039
14,ILYLGHN,-1.61 ± 0.64
15,IMDLAKVCEGVLSSGRVALI,0.096 ± 0.29
16,IMFMGNTVIRDCDLQ,4.32 ± 0.062
17,IMLLNLYKDGSGGRRSKLLQ,-0.09 ± 0.33
18,IMMNNMAVIFR,6.3 ± 0.083
19,IMSFKFENC,1.78 ± 0.26
20,IMWYFIINWHP,4.79 ± 0.074
21,IMYCCVMLIFTMSVVEWGFT,-0.383 ± 1
22,IMYLLGKGLWTVAVYPSRYP,-0.806 ± 0.61
23,INDSEVMRICLPVGFGHLEG,2.45 ± 0.077
24,INGNFVIKKCYRGYVS,-0.557 ± 1.1
25,INIRLFFHDFTRMGSELIGY,0.318 ± 0.8

row,Substance,amyloid nucleation score
1,INKVFNCYFLFSGHIVGLRS,-0.321 ± 0.79
2,INQKDRRGNPYY,-0.042 ± 0.79
3,INWCSDMHNCVCLTIGQWLV,3.36 ± 0.16
4,IPRFRLYANCRMFNRV,0.056 ± 0.39
5,IPRSPCDKENKSRHLHVAWA,-0.372 ± 0.45
6,IPSRFPNFNR,-1.62 ± 0.55
7,IPTACEHKRSPRVQPQRNSA,0.163 ± 0.4
8,IQGFGLKLVEIYWEARQLVH,inactive
9,IQIFGVTYGSG,-0.007 ± 0.79
10,IREEGQFSLAVFSYMKVSPY,2.95 ± 0.071
11,IREGLFRVTIDYSSMLCSGR,3.01 ± 0.12
12,IREPSCWFLFFIKINAGDAV,inactive
13,IRFWSKSGFVQGCSIRISLS,0.02 ± 1
14,IRGLGWSAPLRVIRVAPTYV,0.501 ± 0.57
15,IRIACSGLSDRFMNRVHLHS,-0.017 ± 0.46
16,IRIGFRMHCLVIQYMNCFIS,2.18 ± 0.075
17,IRKYVAWNLRALTMAMIQQR,-0.959 ± 0.48
18,IRMGRANRWEVLARWTSVVA,9.548 ± 0.079
19,IRNILWVLPKVVSDAFI,0.325 ± 0.57
20,IRRFRGLTSRSTRCSKGSKG,-0.072 ± 0.45
21,IRSSSSGNQSQVFSPRDNPP,-0.381 ± 0.31
22,IRVNMSVTITRGWICHRLCK,0.293 ± 0.27
23,IRYDLQQGQFPPTRMECLVL,0.437 ± 0.27
24,ISAETPMIAFCLVPLNPRSV,1.06 ± 0.68
25,ISASGVDSDEGVRPGQLMMC,10.4 ± 0.065

row,Substance,amyloid nucleation score
1,ISCCDRGCDAYLEVWPKLNK,-0.523 ± 1
2,ISDGCCGMLNAYCFTLVNCK,4.18 ± 0.062
3,ISEFHGYSMFKHEARQNGCQ,5.516 ± 0.033
4,ISGFRPSAYWSVLNWNSSL,-1.78 ± 1.1
5,ISHTLHATITVLLVSNFCLS,0.475 ± 0.43
6,ISLFDYGQGMFHRCFMAVKG,-0.131 ± 0.6
7,ISPNALEAQMPTQCNYEDGE,0.451 ± 0.48
8,ISSSKRYVLKS,0.583 ± 0.39
9,ITADNVKSNHKAVVMNDIHG,-0.133 ± 0.49
10,ITAFTNRVKFWS,0.132 ± 0.36
11,ITFMVLM,6.6 ± 0.074
12,ITIYQYTNYLYGSWCNHLML,0.157 ± 1
13,ITLTLTVCTGLCWKYGRRMW,4.49 ± 0.071
14,ITMSYTLGPSCFFWSLADTY,8.218 ± 0.065
15,ITSHVDAAVEFPNVSFSHGV,1.37 ± 0.47
16,ITSLCYNVREFFWGRYVSRV,inactive
17,ITTHMCYVFMWREIRAKDVD,0.484 ± 0.8
18,ITVFAGFLRCCYLCFLDNHS,inactive
19,IVAEMW,1.75 ± 0.4
20,IVCLYKKCLLCGLHLVVSIV,-0.608 ± 0.53
21,IVDGEKYDLVWMFEGHG,-0.536 ± 0.39
22,IVDKVGHRVYEFVIYLTEDG,inactive
23,IVDSIFTFGTRVDGWLGDCA,-0.259 ± 0.32
24,IVFFVSWLIKCKPWFLVVNM,inactive
25,IVFLCSRKCNVNMYGL,10.7 ± 0.071

row,Substance,amyloid nucleation score
1,IVISWIPDNPNQMDALCRRY,0.912 ± 0.34
2,IVKYLVCEQTKILCMMCTCD,8.891 ± 0.068
3,IVNLARLKCSMCRECCGRVL,2.64 ± 0.12
4,IVQLVIAVTGMFLYWNYAFL,-0.461 ± 0.43
5,IVRNPKLMLSNGH,0.907 ± 0.58
6,IVSIFSWTEIRATLG,-1.87 ± 0.55
7,IVSLLLRQSQ,4.41 ± 0.061
8,IVSTV,0.655 ± 0.49
9,IVVKFCWCVGQSRYTGMSTN,6.71 ± 0.052
10,IWFRIQVCEIPSLIQTIVRR,-0.064 ± 0.32
11,IWGGKDLFGGQDWNTLSYLP,-0.283 ± 0.6
12,IWHSVWYP,-0.318 ± 0.76
13,IWIKVTRLRVGFLKRVLVVA,-1.44 ± 0.55
14,IWNWRQYLYVLGADRFSYMC,4.19 ± 0.049
15,IWPMEWNCTMDYRSPWMRHR,2.06 ± 0.07
16,IWTDVRLGGRDIVLDSRVYF,2.14 ± 0.098
17,IWTSRQTTIEAITRAHNPST,3.83 ± 0.084
18,IYCLATVMDMICVYGWICAW,0.049 ± 0.34
19,IYFKIIQDKFQTRMCSNKSW,inactive
20,IYIWCARHEILWYRNGWGRG,0.2 ± 0.36
21,IYNLWYGISPSVMGGLGFLR,3.82 ± 0.062
22,IYNVSQLRTGTDMFNL,0.721 ± 0.51
23,IYPLWLMKSGIRLLCGKMCL,0.607 ± 0.34
24,IYSEWLSLVYSLGAPVTLNS,-0.015 ± 0.46
25,IYSYYGCYLCRNCGLVKFSK,4.03 ± 0.07

row,Substance,amyloid nucleation score
1,IYTLP,inactive
2,IYVECWRHRLILCIHA,0.214 ± 0.49
3,IYVPIGATQ,-1.26 ± 0.78
4,IYYDVFSVSCTFVKLGWIFL,1.96 ± 0.077
5,IYYNGFVQCGLLIEGLITSY,2.39 ± 0.092
6,KAANVAEDSR,0.978 ± 0.47
7,KARLIAITHLPRYYWSFGVL,0.388 ± 0.62
8,KASHSVTRSLSVAYI,-0.714 ± 0.38
9,KAYLH,-0.427 ± 0.78
10,KCMRFIL,-0.087 ± 1
11,KCPRVPNLVS,0.407 ± 0.43
12,KCRHFCRCETCTRYDPVHIL,1 ± 0.53
13,KCRISAMICDKAIFRVKRAC,1.13 ± 0.4
14,KCVGYW,0.811 ± 0.57
15,KCVRTTVLHNRRVPDGLTMP,0.678 ± 0.33
16,KCWNRYKHSDDIYGVGFPSI,-1.09 ± 1
17,KDFVG,2.62 ± 0.11
18,KDKGKNDRAIAWVLWGICVL,0.51 ± 0.51
19,KDKGVCSQLYRDLVWRDEVF,-0.035 ± 0.31
20,KDTRVVYVPSFYLWNLDAVK,-0.551 ± 0.61
21,KDVTVNIRWTLIQLLYHTNF,4.08 ± 0.11
22,KDYPLAGSLVTKL,0.317 ± 0.62
23,KECRYID,inactive
24,KEHGMESRPSWLTFSIYLVG,0.428 ± 0.56
25,KFHGSVNGMFPAREITRDLR,0.316 ± 0.23

row,Substance,amyloid nucleation score
1,KFKFKESGFEVVSLGGMVTP,inactive
2,KFLHKQVFNFHVSGMNPMAS,5.75 ± 0.069
3,KFRCASWLCRSTKAWRRCGA,4.75 ± 0.049
4,KFRCHGR,0.785 ± 0.62
5,KFRMDGGFILNVVHKQHNMV,0.023 ± 0.8
6,KFWDLC,0.047 ± 0.45
7,KGFEIFSSFTLYV,-0.684 ± 0.55
8,KGFNKY,-0.911 ± 0.43
9,KGKDS,-0.037 ± 0.39
10,KGNAVVSWDRS,2.36 ± 0.1
11,KGRGCRFLMLYYRVYMFRGS,0.471 ± 0.5
12,KGRYSGEGEIAFLQRVVGSG,0.434 ± 0.41
13,KGSEPLYGLCIIMV,0.851 ± 0.8
14,KHIFFLREVVNYFMRRTKGL,-0.507 ± 0.64
15,KHRWII,-0.287 ± 0.3
16,KHSRMYLR,1.49 ± 0.17
17,KIDSICRYRGPINQLNINPF,0.417 ± 0.4
18,KIFFKNDGAGSVWPSNKLYF,-1.29 ± 1
19,KIISNSFCSPCINSILPSKM,6.826 ± 0.053
20,KILDWRGWSRGSGPLTSSTW,1.04 ± 0.38
21,KIRTNALYLL,-0.298 ± 0.29
22,KITRWLCYIFTTLL,-1.7 ± 1.1
23,KIVGCGHSRMLIMTWC,0.733 ± 0.56
24,KKERPNMSWGDHY,-0.78 ± 1
25,KKEVHLSRVYITETYVVGEG,-0.052 ± 0.63

row,Substance,amyloid nucleation score
1,KKVRNC,0.436 ± 0.8
2,KLCKF,3.27 ± 0.073
3,KLGRCRRKFMLYGCNLVQSR,-0.133 ± 0.33
4,KLGTLLSFPTVINVANMIQI,3.8 ± 0.081
5,KLMYLKLK,-0.038 ± 1.1
6,KLPAVNLVVMREWKALRFGV,-0.48 ± 0.33
7,KLPLFTSMCCTGHFPPITPP,0.409 ± 0.8
8,KLQSCCIF,6.23 ± 0.084
9,KLRVFPLKESVSQGALQTVG,-0.476 ± 0.44
10,KLVGMPFSSVACNSFKHRSE,0.408 ± 0.16
11,KLVTYVPSNKTNCHDDDGTY,-0.678 ± 0.56
12,KLYFCYLEI,-1.25 ± 1.1
13,KMAIGLCVSTLQ,0.333 ± 0.42
14,KMDTRSRLKQWKRFFIHIPK,-0.92 ± 0.49
15,KMLCYMYVVTHNVTLRHRLY,0.196 ± 0.42
16,KMLSWP,-0.412 ± 1.1
17,KNDLRSSGWTAGSGISLEEG,-0.365 ± 0.76
18,KNSGSMIRWIFIRGSTTIEK,inactive
19,KPIVITLLLSDCVRM,9.498 ± 0.026
20,KRAMPLSLTSRRLWISSGTG,-0.708 ± 1.1
21,KRHMVSS,1.72 ± 0.42
